Laboratory results reported in the Human Domainome abundance scans (Beltran et al. 2025).
± gives the uncertainty stated by the source.

B1: Far upstream element-binding protein 3, residues 75 to 150; numbered along this chain, Q96I24 (parent)
chain: RTVITEEFKVPDKMVGFIIGRGGEQISRIQAESGCKIQIASESSGIPERPCVLTGTPESIEQAKRLLGQIVDRCRN

Variants of: B1
Assay: abundance fitness (aPCA) (normalised: wild type 0, dead -1); higher = more abundant; growth selection in yeast, the domain comes from the species named
Details: Homo sapiens

Abundance fitness: each site, then its substitutions
R21: W -0.187 ± 0.036, V -0.057 ± 0.029, Y -0.182 ± 0.072, S 0.005 ± 0.034, T 0.009 ± 0.041, A 0.005 ± 0.031, M -0.002 ± 0.047, F -0.147 ± 0.055, I -0.107 ± 0.07, E 0.004 ± 0.035, C -0.089 ± 0.041, K -0.025 ± 0.043, L -0.057 ± 0.031, Q -0.009 ± 0.041, H -0.028 ± 0.053, G -0.064 ± 0.027, N 0.004 ± 0.063, D -0.071 ± 0.051
K13: C -0.058 ± 0.041, N 0.004 ± 0.057, V -0.263 ± 0.03, W -0.142 ± 0.032, T -0.073 ± 0.039, F -0.243 ± 0.061, A -0.054 ± 0.03, Q -0.017 ± 0.038, G -0.027 ± 0.026, E -0.032 ± 0.035, R -0.046 ± 0.026, S -0.018 ± 0.031, Y 0.022 ± 0.06, D -0.082 ± 0.043, M -0.207 ± 0.042, I -0.286 ± 0.068, L -0.198 ± 0.032, H 0.016 ± 0.056
G16: I -0.194 ± 0.075, L -0.148 ± 0.032, Y -0.135 ± 0.058, C -0.074 ± 0.041, D -0.003 ± 0.043, S -0.032 ± 0.035, F -0.223 ± 0.063, N -0.055 ± 0.065, K 0.018 ± 0.042, E -0.001 ± 0.034, T -0.063 ± 0.037, P -0.029 ± 0.041, V -0.172 ± 0.031, Q -0.027 ± 0.039, R -0.037 ± 0.028, M -0.12 ± 0.043, W -0.21 ± 0.038, H -0.042 ± 0.052
F17: Q -0.031 ± 0.045, E 0.025 ± 0.037, W -0.052 ± 0.037, N -0.141 ± 0.058, G -0.06 ± 0.029, C -0.074 ± 0.046, H -0.026 ± 0.061, D 0.081 ± 0.05, V -0.028 ± 0.031, Y -0.019 ± 0.065, P -0.095 ± 0.047, S -0.034 ± 0.038, L -0.065 ± 0.034, A -0.013 ± 0.034, R -0.018 ± 0.029, I -0.05 ± 0.07
I18: G -0.272 ± 0.027, H -0.279 ± 0.058, Y -0.261 ± 0.065, W -0.243 ± 0.037, K -0.279 ± 0.039, E -0.182 ± 0.035, Q -0.234 ± 0.04, D -0.142 ± 0.046, P -0.192 ± 0.041, A -0.225 ± 0.031, N -0.295 ± 0.056, R -0.425 ± 0.028, S -0.271 ± 0.034, F -0.133 ± 0.064, V -0.085 ± 0.03, L -0.085 ± 0.032, M -0.079 ± 0.039
T5: S -0.082 ± 0.039, V -0.09 ± 0.032, P -0.394 ± 0.059, L -0.314 ± 0.044, Q -0.099 ± 0.046, W -0.192 ± 0.037, Y -0.164 ± 0.08, R -0.063 ± 0.031, K -0.068 ± 0.052
G23: R -0.056 ± 0.025, H -0.077 ± 0.067, Q -0.042 ± 0.036, V -0.193 ± 0.029, I -0.294 ± 0.063, S -0.087 ± 0.031, T -0.1 ± 0.036, M -0.078 ± 0.041, C -0.17 ± 0.04, N -0.058 ± 0.078, F -0.117 ± 0.056, E -0.037 ± 0.032, Y -0.182 ± 0.061, K -0.082 ± 0.039, D -0.091 ± 0.044
G20: W -0.483 ± 0.037, Q -0.116 ± 0.04, Y -0.524 ± 0.091, C -0.459 ± 0.047, T -0.228 ± 0.044, H -0.243 ± 0.067, V -0.707 ± 0.034, A -0.118 ± 0.029, D -0.104 ± 0.041, S -0.151 ± 0.035, R -0.168 ± 0.028, N -0.17 ± 0.09, L -0.474 ± 0.035, P -0.347 ± 0.041, E -0.127 ± 0.034, M -0.312 ± 0.046
I19: C -0.093 ± 0.047, P -0.25 ± 0.043, M -0.062 ± 0.043, A -0.074 ± 0.034, G -0.102 ± 0.03, N -0.001 ± 0.069, D -0.071 ± 0.055, R -0.045 ± 0.03, H -0.163 ± 0.074, E -0.081 ± 0.051, W -0.096 ± 0.037, K -0.057 ± 0.053, S -0.045 ± 0.035, T -0.039 ± 0.044, L -0.024 ± 0.033, V -0.033 ± 0.033, Q -0.048 ± 0.041
V10: F -0.055 ± 0.057, D -0.479 ± 0.05, P -0.514 ± 0.044, W -0.295 ± 0.032, I -0.036 ± 0.056, L -0.036 ± 0.029, H -0.4 ± 0.053, R -0.8 ± 0.035, Q -0.675 ± 0.047, A -0.287 ± 0.034, M -0.122 ± 0.039, K -0.794 ± 0.063, T -0.407 ± 0.038, N -0.612 ± 0.081, Y -0.291 ± 0.059, E -0.631 ± 0.039, G -0.634 ± 0.03
E6: L -0.235 ± 0.03, G -0.19 ± 0.026, M -0.103 ± 0.039, F -0.16 ± 0.056, W -0.375 ± 0.033, V -0.051 ± 0.029, P -0.807 ± 0.054, A -0.067 ± 0.03, N -0.242 ± 0.067, Q -0.068 ± 0.041, I -0.111 ± 0.057, S -0.042 ± 0.032, H -0.09 ± 0.063, C -0.022 ± 0.041, D -0.084 ± 0.047, T -0.06 ± 0.039, R -0.099 ± 0.028, K -0.018 ± 0.043, Y -0.145 ± 0.054
F8: N -0.353 ± 0.074, V -0.064 ± 0.029, C -0.317 ± 0.041, H -0.173 ± 0.071, Y -0.024 ± 0.076, L -0.097 ± 0.03, S -0.18 ± 0.037, Q -0.34 ± 0.046, T -0.042 ± 0.046, P -0.651 ± 0.051, K -0.397 ± 0.053, W -0.027 ± 0.031, D -0.208 ± 0.07, M -0.083 ± 0.045, R -0.543 ± 0.029, E -0.351 ± 0.038
E24: N 0.052 ± 0.05, I -0.035 ± 0.055, P -0.271 ± 0.045, K 0.063 ± 0.042, W 0.222 ± 0.032, R 0.113 ± 0.027, H 0.059 ± 0.068, A -0.008 ± 0.033, V -0.03 ± 0.03, D -0.053 ± 0.049, T 0.008 ± 0.038, Y 0.062 ± 0.053, M -0.019 ± 0.039, G -0.045 ± 0.028, F -0.043 ± 0.057, Q 0.055 ± 0.041, L -0.112 ± 0.031, C 0.031 ± 0.042, S 0.016 ± 0.033
M14: H -0.089 ± 0.055, N -0.101 ± 0.073, R -0.423 ± 0.029, G -0.311 ± 0.026, V -0.159 ± 0.033, A -0.172 ± 0.035, F -0.127 ± 0.08, Q -0.248 ± 0.043, E -0.216 ± 0.038, K -0.345 ± 0.055, P -0.451 ± 0.05, I -0.33 ± 0.066, C -0.063 ± 0.048, D -0.126 ± 0.059, W -0.063 ± 0.032, Y -0.176 ± 0.083, L -0.061 ± 0.032
P11: Q -0.235 ± 0.04, C -0.239 ± 0.048, M -0.259 ± 0.043, R -0.288 ± 0.029, T -0.136 ± 0.041, Y -0.303 ± 0.068, G -0.254 ± 0.031, L -0.236 ± 0.036, H -0.217 ± 0.066, K -0.298 ± 0.053, A -0.219 ± 0.033, I -0.297 ± 0.081, S -0.182 ± 0.037, E -0.109 ± 0.041, F -0.422 ± 0.076, D -0.061 ± 0.056
E7: Q -0.072 ± 0.039, H -0.002 ± 0.05, M -0.111 ± 0.04, G -0.083 ± 0.026, L -0.048 ± 0.029, D -0.02 ± 0.047, P -0.136 ± 0.043, C -0.135 ± 0.037, A -0.078 ± 0.031, V -0.036 ± 0.029, S -0.019 ± 0.032, R -0.057 ± 0.027, Y -0.037 ± 0.055, K -0.01 ± 0.041, T -0.002 ± 0.042, F 0.088 ± 0.05, I -0.048 ± 0.064
V15: K -0.119 ± 0.043, H -0.218 ± 0.051, E -0.183 ± 0.033, P -0.37 ± 0.049, T -0.158 ± 0.038, S -0.102 ± 0.033, A -0.059 ± 0.03, N -0.349 ± 0.06, M -0.073 ± 0.043, G -0.135 ± 0.027, L -0.061 ± 0.03, F -0.072 ± 0.053, I -0.111 ± 0.051, C -0.108 ± 0.038, Q -0.162 ± 0.043, D -0.324 ± 0.047, Y -0.141 ± 0.065
K9: D -0.129 ± 0.044, S 0.025 ± 0.033, E -0.044 ± 0.034, T -0.057 ± 0.038, I -0.106 ± 0.059, Y -0.114 ± 0.056, N -0.109 ± 0.063, H 0.012 ± 0.07, R -0.09 ± 0.027, Q -0.007 ± 0.038, F -0.031 ± 0.056, W -0.053 ± 0.031, V -0.047 ± 0.028, L -0.021 ± 0.031, M -0.016 ± 0.041, A -0.006 ± 0.031, G -0.006 ± 0.026, C -0.057 ± 0.041
G22: S -0.078 ± 0.034, P -0.276 ± 0.043, D 0.016 ± 0.051, W -0.149 ± 0.036, Q -0.085 ± 0.044, R -0.012 ± 0.027, F -0.1 ± 0.065, T -0.09 ± 0.041, N 0.006 ± 0.062, C -0.057 ± 0.041, V -0.191 ± 0.031, E -0.044 ± 0.035, I -0.086 ± 0.078, Y -0.161 ± 0.063, A -0.045 ± 0.031, K -0.007 ± 0.045
Q25: C -0.025 ± 0.041, A -0.098 ± 0.03
D12: G -0.095 ± 0.027, V -0.137 ± 0.031, P -0.058 ± 0.039, Q -0.155 ± 0.043, R -0.1 ± 0.028, A -0.024 ± 0.03, W -0.255 ± 0.034, K -0.066 ± 0.049, L -0.173 ± 0.031, E -0.053 ± 0.036, N -0.004 ± 0.058, F -0.186 ± 0.064, S -0.027 ± 0.032, M -0.144 ± 0.041, T -0.073 ± 0.04, Y -0.116 ± 0.073
